These results are taken from the supplement of paper PMC9170038.

The data set relates to MS2 coat protein. Briefly: apparent KD of MS2 coat protein; designed switch direction (-1 OFF switch, 1 ON switch): -1; higher = weaker reporter binding. An outline of the steps:
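Designed RNA switches were transcribed on Illumina chips by stalled E. coli RNA polymerase and titrated with SNAP-549-labelled MS2 coat protein from 0.7 or 1.5 nM, doubling to 3 µM. Step length ran from 0.8–1.5 h at the lowest concentration to 10–20 min at the highest. The apparent KD is the median over clusters for each design, from curve-fitted normalised cluster fluorescence.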

Setting [1] is: Eterna round: R95, input ligand: FMN 200 uM.
[2] abbreviates: Eterna round: R95, input ligand: microRNA oligo, concentration not stated.
Where [3] appears, read: Eterna round: R95, input ligand: none.
The mark [4] stands for this setting: input ligand: microRNA oligo, concentration not stated.

Turning to “UUUAAUUUUUUUUUUUUACAAGCUUUUUGCUCGUCUUAUACAUGAGGAUCACCCAUGUAGGUGAAAGAUAAAUUAUC [JMF 4] (puzzle: Sensor v3, turn-off variant 2)”, the “apparent KD of MS2 coat protein” value runs as follows: under setting [1], 31.5 nM; under setting [2], 77.5 nM; under setting [3], 33.5 nM.

For “UUUAAUUUUUUUUUUUUACAAGCUUUUUGCUCGUCUUAUACAUGAGGAUCACCCAUGUAGGUGAGAAGUAAAUUAUC [JMF 49] (puzzle: Sensor v3, turn-off variant 2)”, the “apparent KD of MS2 coat protein” value under setting [1] turned out to be 19.3 nM, the “apparent KD of MS2 coat protein” value under setting [2] was found to be 168 nM and the “apparent KD of MS2 coat protein” value under setting [3] came to 23.3 nM.

In the case of “UUUAAUUUUUUUUUUUUACAAGCUUUUUGCUCGUCUUAUACAUGAGGAUCACCCAUGUGAGUGGGAAAUGAAUUAUC [JMF 100] (puzzle: Sensor v3, turn-off variant 2)”, the “apparent KD of MS2 coat protein” value under setting [1] worked out at 99 nM, the “apparent KD of MS2 coat protein” value under setting [2] was found to be 218 nM and the “apparent KD of MS2 coat protein” value under setting [3] was found to be 111 nM.

Take “UUUAAUUUUUUUUUUUUACAAGCUUUUUGCUCGUCUUAUACAUGAGGAUCACCCAUGUGGAUGGGAAGUAAAUUAUC [JMF 52] (puzzle: Sensor v3, turn-off variant 2)”: the “apparent KD of MS2 coat protein” value reads like this: under setting [1], 23.9 nM; under setting [2], 59.2 nM; under setting [3], 20.9 nM.

In the case of “UUUAAUUUUUUUUUUUUACAAGCUUUUUGCUCGUCUUAUACAUGAGGAUCACCCAUGUGGGUGAGAAAUGAAUUAUC [JMF 93] (puzzle: Sensor v3, turn-off variant 2)”, the “apparent KD of MS2 coat protein” value was determined as 59.9 nM under setting [1], 10.2 nM under setting [2] and 76.8 nM under setting [3].

On to “UUUACAAGCUAAAGAUCCCACAUGAGGAUCACCCAUGUUGCUGCCGGUGACGGUAGCAUAACUUUUGCUCGUCUUAU [JL TOV1 3.59] (Eterna round: R97, puzzle: Sensor, turn-off variant 1)”, for which the “apparent KD of MS2 coat protein” value is, setting by setting: (input ligand: FMN 200 uM) 278 nM; (input ligand: none) 342 nM.

Turning to “UUUACAAGCUAAUGAUCCCACAUGAGGAUCACCCAUGUUGCUGCCGUGAGGUAGCUUUUAACAUUUGCUCGUCUUAU [JL TOV1 3.40] (Eterna round: R97, puzzle: Sensor, turn-off variant 1)”, the “apparent KD of MS2 coat protein” value amounted to 733 nM (input ligand: FMN 200 uM) and 1060 nM (input ligand: none).

In the case of “UUUACAAGCUAUAGAUCCCACAUGAGGAUCACCCAUGUAGCUGCCAACGGUAGCUUUUUAUGGUUUGCUCGUCUUAU [JL TOV1 3.34] (Eterna round: R97, puzzle: Sensor, turn-off variant 1)”, the “apparent KD of MS2 coat protein” value reads like this: (input ligand: FMN 200 uM) 424 nM; (input ligand: none) 1210 nM.

For the sequence “UUUACAAGCUUUUGAUCCCACAUGAGGAUCACCCAUGUUGCUGCCGGUGACGGUAGCAUAACAAAUGCUCGUCUUAU [JL TOV1 3.55] (Eterna round: R97, puzzle: Sensor, turn-off variant 1)”, the “apparent KD of MS2 coat protein” value worked out at 846 nM (input ligand: FMN 200 uM) and 1160 nM (input ligand: none).

Turning to “UUUAGUAUCUAGGAUAUCUAGUACAUAGUAUCUAGAGAAGGAGAUACAUGAGGAUCACCCAUGUUCUGUGUUCU [Exclusion 6 - 1:a] (puzzle: Exclusion 6)”, the “apparent KD of MS2 coat protein” value under setting [2] was 22.4 nM.

Turning to “UUUAGUUCAGGAUAUGAUGAAUUAAACAUGAGGAUCACCCAUGUAGAUCCUGAAUUAACAUCAGAAGGGAACAUUU [JL-ex5-4.48 Brourd mod] (Eterna round: R97, puzzle: Exclusion 5)”, the “apparent KD of MS2 coat protein” value (input ligand: FMN 200 uM) turned out to be 41.8 nM and the “apparent KD of MS2 coat protein” value (input ligand: none) was determined as 15 nM.

With “UUUAGUUCAGGAUAUGUAGACAUUAACAUGAGGAUCACCCAUGUAGAUCCUGAAUUAACUACAGAAGGGAGCAUUU [Mod of Brourd 8 - Jieux - Exclusion 5] (Eterna round: R97, puzzle: Exclusion 5)”, the “apparent KD of MS2 coat protein” value by setting is: (input ligand: FMN 200 uM) 19.3 nM; (input ligand: none) 15.3 nM.

As for “UUUAGUUCAGGAUAUGUAGAUUUUAACAUGAGGAUCACCCAUGUAGAUCCUGAAUUAACUACAGAAGGGAACAUUU [Exclusion 5: 2:a] (Eterna round: R96, puzzle: Exclusion 5)”, the “apparent KD of MS2 coat protein” value by setting is: (input ligand: FMN 200 uM) 94.3 nM; under setting [4], 20.2 nM; (input ligand: none) 24.3 nM.

Regarding “UUUAGUUCAGGAUAUGUAGAUUUUAACAUGAGGAUCACCCAUGUAGAUCCUGAAUUAACUACAGAAGGGAACAUUU [Exclusion 5: 2:a] (puzzle: Exclusion 5)”, the “apparent KD of MS2 coat protein” value under setting [2] was found to be 24.9 nM.

With “UUUAGUUCAGGAUAUGUAGAUUUUAACAUGAGGAUCACCCAUGUAGAUCCUGAAUUAACUACAGAAGGGAACAUUU [Mod of Brourd 1 - Jieux - Exclusion 5] (Eterna round: R97, puzzle: Exclusion 5)”, the “apparent KD of MS2 coat protein” value reads like this: (input ligand: FMN 200 uM) 77.2 nM; (input ligand: none) 22.5 nM.

Consider “UUUAGUUCAGGAUAUGUAGUUUUAAACAUGAGGAUCACCCAUGUAGAACCUGAUCCUGCUACAGAAGGGAACAUUU [Mat - Exclusion 5 - Eli Mod - D14] (Eterna round: R97, puzzle: Exclusion 5)”, for which the “apparent KD of MS2 coat protein” value is, setting by setting: (input ligand: FMN 200 uM) 32 nM; (input ligand: none) 18.2 nM.

As for “UUUAUAAUUUCAAUCUUCGCCAGCAAACUUACGCUAGCCACAUGAGGAUCACCCAUGUUUUUUGUUCGUUUUAUUCU [Veedcera] (puzzle: Sensor v3, turn-off variant 2)”, the “apparent KD of MS2 coat protein” value was determined as 18 nM under setting [1], 57.5 nM under setting [2] and 19.5 nM under setting [3].

As to “UUUAUAAUUUCAAUCUUCGCUGGCAAACUUACGCCAGCCACAUGAGGAUCACCCAUGUUUUUUGUUCGUUUUACUCU [Tetevea] (puzzle: Sensor v3, turn-off variant 2)”, the “apparent KD of MS2 coat protein” value by setting is: under setting [1], 18 nM; under setting [2], 64 nM; under setting [3], 22.5 nM.

Regarding “UUUAUAUAGUAAGGAUAUGUAUUAAUUUUAUAGACAGAAGGUACUGACAUGAGGAUCACCCAUGUUUUAGUGUGGGCAUGUAGU [JMF's solution 94] (Eterna round: R96, puzzle: Exclusion NG 1)”, under setting [4], the “apparent KD of MS2 coat protein” value is 299 nM.

Consider “UUUAUGUCAGGAUAUACAUGAGGAUCACCCAUGUAUAUCUUAAGGUAUACAUGGGAAUGUAGAAGGGACCUCCU [Omei Ex3 Pseudoloop 7] (Eterna round: R97, puzzle: Exclusion 3)”, for which the “apparent KD of MS2 coat protein” value was determined as 40.7 nM (input ligand: FMN 200 uM) and 41.3 nM (input ligand: none).

As for “UUUAUUUUGCAAGGAUAUGUUUAAUUUUAGUUUCCUUACACAUGAGGAUCACCCAUGUUAUACUUACAGAAGGUGCAUAAUUUU [JR_ExcNG2_Sub038] (Eterna round: R96, puzzle: Exclusion NG 2)”, the “apparent KD of MS2 coat protein” value under setting [4] worked out at 132 nM.

Turning to “UUUCAGCAAGGAUAUACGGGCUGUGCUUUUCAUUUCUUACAACAUGAGGAUCACCCAUGUAGAAGGUGCAACUU [Ex2 #10] (Eterna round: R97, puzzle: Exclusion 2)”, the “apparent KD of MS2 coat protein” value worked out at 110 nM (input ligand: FMN 200 uM) and 26.5 nM (input ligand: none).

With “UUUCAUCAUGUAGGAUAUGCGUGGCAAAGCUAUGCAGAAGGACAUGAGGAUCACCCAUGUUCUAGCGUCUGCGUACAGAUGCUA [Mat - Exclusion NG 1 - Mod of JL - D73] (Eterna round: R96, puzzle: Exclusion NG 1)”, the “apparent KD of MS2 coat protein” value was 404 nM (input ligand: FMN 200 uM), 43.2 nM under setting [4] and 68 nM (input ligand: none).

Turning to “UUUCCCUGGCAAGGAUAUCCUGUGCGGUUCCGGCUCGUGUCUGUUACAUGAGGAUCACCCAUGUGGGAGAAGGUGCCUGUGGUU [Design 90] (Eterna round: R96, puzzle: Exclusion NG 2)”, the “apparent KD of MS2 coat protein” value stood at 390 nM (input ligand: FMN 200 uM), 173 nM under setting [4] and 220 nM (input ligand: none).

For “UUUCCCUGUGUGAGGAUAUACUUGUUUGGGUUUUUGUAGAAGGCACAUGAGGAUCACCCAUGUACUCUGUCGUG [JR_BME4_Sub021] (puzzle: Brourd's mod of Exclusion 4)”, the “apparent KD of MS2 coat protein” value under setting [2] was determined as 21.1 nM.

On to “UUUCCUUGUGUGAGGAUAUACUUGUUUGUGUUUUUGUAGAAGGCACAUGAGGAUCACCCAUGUACUCUUUCCUG [JR_BME4_Sub023] (Eterna round: R96, puzzle: Brourd's mod of Exclusion 4)”, for which the “apparent KD of MS2 coat protein” value is, setting by setting: (input ligand: FMN 200 uM) 68.6 nM; under setting [4], 34.7 nM; (input ligand: none) 37.7 nM.

Take “UUUCCUUGUGUGAGGAUAUACUUGUUUGUGUUUUUGUAGAAGGCACAUGAGGAUCACCCAUGUACUCUUUCCUG [JR_BME4_Sub023] (puzzle: Brourd's mod of Exclusion 4)”: the “apparent KD of MS2 coat protein” value under setting [2] was 34.2 nM.

On to “UUUCGGCGGACCGUGGCUUUUUGCUCGUCUUAUGCUUCGACAUGAGGAUCACCCAUGUGGUGGUGGUCCGUUGUUGU [Grok-var2-12 mod JAL] (puzzle: Sensor v3, turn-off variant 2)”, for which the “apparent KD of MS2 coat protein” value runs as follows: under setting [1], 29.9 nM; under setting [2], 20.3 nM; under setting [3], 48.9 nM.

Regarding “UUUCUUCAUAUCACAUGAGGAUCACCCAUGUUAUUCAUCGCGUAGGAUAUCGAGAUUUUUUUUUACGAGAAGGACGUAUUGAUA [JR_ExcNG3_Sub073] (Eterna round: R96, puzzle: Exclusion NG 3)”, the “apparent KD of MS2 coat protein” value is 49 nM (input ligand: FMN 200 uM), 51.6 nM under setting [4] and 52.2 nM (input ligand: none).

Take “UUUGAAUAAGUGAGGAUAUACUGUUAGUAUUGAUUGUAGAAGGUACAUGAGGAUCACCCAUGUUUAGUAUUUAU [JR_BME4_Sub038] (puzzle: Brourd's mod of Exclusion 4)”: the “apparent KD of MS2 coat protein” value under setting [2] was found to be 15.6 nM.

As for “UUUGCAAGCUUUAGAUCCCACAUGAGGAUCACCCAUGUUGCUGCCGUGAGGUAGCAUUUAACUAAUGCUCGUCUUAU [JL TOV1 3.48] (Eterna round: R97, puzzle: Sensor, turn-off variant 1)”, the “apparent KD of MS2 coat protein” value runs as follows: (input ligand: FMN 200 uM) 109 nM; (input ligand: none) 169 nM.
